Test results from patent US20220119534A1 (DRAGONFLY THERAPEUTICS, published 2022).

T1: human CLEC12A expressed on cells (human, UniProt Q5QGZ9 1-265)
T1 construct: Transduced isogenic cells or endogenous expression on AML cells; also called RMA-hCLEC12A; Ba/F3-hCLEC12A
T1 sequence: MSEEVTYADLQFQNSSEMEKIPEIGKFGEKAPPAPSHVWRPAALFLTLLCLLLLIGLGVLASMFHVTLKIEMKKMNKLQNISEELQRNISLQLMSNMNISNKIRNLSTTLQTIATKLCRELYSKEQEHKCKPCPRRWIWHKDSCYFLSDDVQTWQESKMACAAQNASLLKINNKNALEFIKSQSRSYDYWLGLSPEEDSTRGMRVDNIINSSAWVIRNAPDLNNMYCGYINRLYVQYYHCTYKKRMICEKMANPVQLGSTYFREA

T2: recombinant human CLEC12A-His (human, UniProt Q5QGZ9 65-265)
T2 construct: also called hCLEC12A-His; hCLEC12A
T2 sequence: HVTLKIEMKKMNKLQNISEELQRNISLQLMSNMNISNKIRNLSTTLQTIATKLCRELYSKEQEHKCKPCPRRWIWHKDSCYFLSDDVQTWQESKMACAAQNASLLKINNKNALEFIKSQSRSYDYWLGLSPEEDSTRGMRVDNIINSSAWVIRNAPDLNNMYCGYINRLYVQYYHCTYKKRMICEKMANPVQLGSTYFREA

B1: AB0191 (other)
chain: EVQLVESGGGVVQPGGSLRLSCAASGFTFNSFGMHWVRQAPGKCLEWVAFISSGSTSIYYANTVKGRFTISRDNSKNTLYLQMNSLRAEDTAVYYCARDGYPTGGAMDYWGQGTSVTVSSGGGGSGGGGSGGGGSGGGGSDIQMTQSPSSLSASVGDRVTITCKASQDIYNYLSWFQQKPGKAPKPLIYRANILVSGVPSRFSGSGSGQDYTFTISSLQPEDIATYYCLQFDAFPFTFGCGTKLEIKGSDKTHTCPPCPAPELLGGPSVFLFPPKPKDTLMISRTPEVTCVVVDVSHEDPEVKFNWYVDGVEVHNAKTKPREEQYNSTYRVVSVLTVLHQDWLNGKEYKCKVSNKALPAPIEKTISKAKGQPREPRVYTLPPCRDELTKNQVSLTCLVKGFYPSDIAVEWESNGQPENNYKTTPPVLVSDGSFTLYSKLTVDKSRWQQGNVFSCSVMHEALHNHYTQKSLSLSPG
heavy: EVQLVESGGGLVKPGGSLRLSCAASGFTFSSYSMNWVRQAPGKGLEWVSSISSSSSYIYYADSVKGRFTISRDNAKNSLYLQMNSLRAEDTAVYYCARGAPIGAAAGWFDPWGQGTLVTVSSASTKGPSVFPLAPSSKSTSGGTAALGCLVKDYFPEPVTVSWNSGALTSGVHTFPAVLQSSGLYSLSSVVTVPSSSLGTQTYICNVNHKPSNTKVDKKVEPKSCDKTHTCPPCPAPELLGGPSVFLFPPKPKDTLMISRTPEVTCVVVDVSHEDPEVKFNWYVDGVEVHNAKTKPREEQYNSTYRVVSVLTVLHQDWLNGKEYKCKVSNKALPAPIEKTISKAKGQPREPQVCTLPPSRDELTENQVSLTCLVKGFYPSDIAVEWESNGQPENNYKTTPPVLDSDGSFFLYSWLTVDKSRWQQGNVFSCSVMHEALHNHYTQKSLSLSPG
light: DIQMTQSPSSVSASVGDRVTITCRASQGISSWLAWYQQKPGKAPKLLIYAASSLQSGVPSRFSGSGSGTDFTLTISSLQPEDFATYYCQQGVSFPRTFGGGTKVEIKRTVAAPSVFIFPPSDEQLKSGTASVVCLLNNFYPREAKVQWKVDNALQSGNSQESVTEQDSKDSTYSLSSTLTLSKADYEKHKVYACEVTHQGLSSPVTKSFNRGEC
notes: As AB0185
B2: AB0195 (other)
chain: EVQLVESGGGVVQPGGSLRLSCAASGFTFNAFGMHWVRQAPGKCLEWVAFISSGSTSIYYANTVKGRFTISRDNSKNTLYLQMNSLRAEDTAVYYCARDGYPTGGAMDYWGQGTSVTVSSGGGGSGGGGSGGGGSGGGGSDIKMTQSPSSLSASVGDRVTITCKASQDIYNYLSWFQQKPGKAPKPLIYRANILVSGVPSRFSGSGSGQDYTLTISSLQPEDIATYYCLQFDAFPFTFGCGTKLEIKGSDKTHTCPPCPAPELLGGPSVFLFPPKPKDTLMISRTPEVTCVVVDVSHEDPEVKFNWYVDGVEVHNAKTKPREEQYNSTYRVVSVLTVLHQDWLNGKEYKCKVSNKALPAPIEKTISKAKGQPREPRVYTLPPCRDELTKNQVSLTCLVKGFYPSDIAVEWESNGQPENNYKTTPPVLVSDGSFTLYSKLTVDKSRWQQGNVFSCSVMHEALHNHYTQKSLSLSPG
heavy: EVQLVESGGGLVKPGGSLRLSCAASGFTFSSYSMNWVRQAPGKGLEWVSSISSSSSYIYYADSVKGRFTISRDNAKNSLYLQMNSLRAEDTAVYYCARGAPIGAAAGWFDPWGQGTLVTVSSASTKGPSVFPLAPSSKSTSGGTAALGCLVKDYFPEPVTVSWNSGALTSGVHTFPAVLQSSGLYSLSSVVTVPSSSLGTQTYICNVNHKPSNTKVDKKVEPKSCDKTHTCPPCPAPELLGGPSVFLFPPKPKDTLMISRTPEVTCVVVDVSHEDPEVKFNWYVDGVEVHNAKTKPREEQYNSTYRVVSVLTVLHQDWLNGKEYKCKVSNKALPAPIEKTISKAKGQPREPQVCTLPPSRDELTENQVSLTCLVKGFYPSDIAVEWESNGQPENNYKTTPPVLDSDGSFFLYSWLTVDKSRWQQGNVFSCSVMHEALHNHYTQKSLSLSPG
light: DIQMTQSPSSVSASVGDRVTITCRASQGISSWLAWYQQKPGKAPKLLIYAASSLQSGVPSRFSGSGSGTDFTLTISSLQPEDFATYYCQQGVSFPRTFGGGTKVEIKRTVAAPSVFIFPPSDEQLKSGTASVVCLLNNFYPREAKVQWKVDNALQSGNSQESVTEQDSKDSTYSLSSTLTLSKADYEKHKVYACEVTHQGLSSPVTKSFNRGEC
notes: As AB0185
B3: AB0185 (other)
chain: DIQMTQSPSSLSASVGDRVTITCKASQDIYNYLSWFQQKPGKAPKPLIYRANILVSGVPSRFSGSGSGQDYTFTISSLQPEDIATYYCLQFDAFPFTFGCGTKLEIKGGGGSGGGGSGGGGSGGGGSEVQLVESGGGVVQPGGSLRLSCAASGFTFNSFGMHWVRQAPGKCLEWVAFISSGSTSIYYANTVKGRFTISRDNSKNTLYLQMNSLRAEDTAVYYCARDGYPTGGAMDYWGQGTSVTVSSGSDKTHTCPPCPAPELLGGPSVFLFPPKPKDTLMISRTPEVTCVVVDVSHEDPEVKFNWYVDGVEVHNAKTKPREEQYNSTYRVVSVLTVLHQDWLNGKEYKCKVSNKALPAPIEKTISKAKGQPREPRVYTLPPCRDELTKNQVSLTCLVKGFYPSDIAVEWESNGQPENNYKTTPPVLVSDGSFTLYSKLTVDKSRWQQGNVFSCSVMHEALHNHYTQKSLSLSPG
heavy: EVQLVESGGGLVKPGGSLRLSCAASGFTFSSYSMNWVRQAPGKGLEWVSSISSSSSYIYYADSVKGRFTISRDNAKNSLYLQMNSLRAEDTAVYYCARGAPIGAAAGWFDPWGQGTLVTVSSASTKGPSVFPLAPSSKSTSGGTAALGCLVKDYFPEPVTVSWNSGALTSGVHTFPAVLQSSGLYSLSSVVTVPSSSLGTQTYICNVNHKPSNTKVDKKVEPKSCDKTHTCPPCPAPELLGGPSVFLFPPKPKDTLMISRTPEVTCVVVDVSHEDPEVKFNWYVDGVEVHNAKTKPREEQYNSTYRVVSVLTVLHQDWLNGKEYKCKVSNKALPAPIEKTISKAKGQPREPQVCTLPPSRDELTENQVSLTCLVKGFYPSDIAVEWESNGQPENNYKTTPPVLDSDGSFFLYSWLTVDKSRWQQGNVFSCSVMHEALHNHYTQKSLSLSPG
light: DIQMTQSPSSVSASVGDRVTITCRASQGISSWLAWYQQKPGKAPKLLIYAASSLQSGVPSRFSGSGSGTDFTLTISSLQPEDFATYYCQQGVSFPRTFGGGTKVEIKRTVAAPSVFIFPPSDEQLKSGTASVVCLLNNFYPREAKVQWKVDNALQSGNSQESVTEQDSKDSTYSLSSTLTLSKADYEKHKVYACEVTHQGLSSPVTKSFNRGEC
notes: Humanized 9F11.B7 F3' TriNKET; scFv-Fc chain built from the general F3' description

Experiments:
[1] = target: T1, human CLEC12A expressed on cells; experiment: flow cytometry, HL60
[2] = target: T2, recombinant human CLEC12A-His; experiment: SPR screening, semi-purified
[3] = target: T1, human CLEC12A expressed on cells; experiment: flow cytometry, hCLEC12A+ Ba/F3

Binder | EC50 [1] [pM] | Max binding MFI [1] [MFI] | Kd [2] [pM] | koff [2] [s⁻¹] | kon [2] [M⁻¹ s⁻¹] | EC50 [3] [pM] | Max binding MFI [3] [MFI]
B1 | 600 | 420 | 1730 | 0.00126 | 728000 | 600 | 7940
B2 | 700 | 551 | 1680 | 0.00129 | 766000 | 600 | 10800
B3 | 400 | 372 | 1400 | 0.00101 | 726000 | 700 | 8020
